Consider one molecule from US20240301031A1 (JIANGSU HENGRUI PHARMACEUTICALS, published 2024).

By IC50 is commonly meant the concentration needed to halve the response being measured. In general, EC50 refers to the concentration at which the effect is half-maximal. A high value points to weaker potency.

In test [1] the target is T1, IL-12/23 p40 (Sino biological, 10052-H08H) (UniProt P29460 23-328).
T1 construct: Bought protein
T1 sequence (looked up): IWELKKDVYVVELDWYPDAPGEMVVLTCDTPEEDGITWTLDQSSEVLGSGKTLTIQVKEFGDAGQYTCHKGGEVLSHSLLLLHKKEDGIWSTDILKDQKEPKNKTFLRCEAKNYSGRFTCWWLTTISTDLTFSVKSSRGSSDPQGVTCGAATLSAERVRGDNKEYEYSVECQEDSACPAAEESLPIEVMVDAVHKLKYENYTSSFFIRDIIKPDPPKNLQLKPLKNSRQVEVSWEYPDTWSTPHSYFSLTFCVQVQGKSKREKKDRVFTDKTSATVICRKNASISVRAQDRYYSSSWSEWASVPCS
As to the kind of experiment: ELISA, IL-12/23 p40 coated.

Test [2] concerns the target T2, human APRIL (5860-AP-010/CF, R&D Systems) (human, UniProt O75888 115-250, limits assumed).
T2 construct: Bought protein
T2 sequence (looked up): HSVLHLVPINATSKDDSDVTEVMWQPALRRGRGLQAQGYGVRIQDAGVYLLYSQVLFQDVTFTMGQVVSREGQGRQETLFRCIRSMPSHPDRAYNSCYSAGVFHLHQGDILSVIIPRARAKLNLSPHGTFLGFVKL
As to the kind of experiment: competition ELISA: biotin-labeled APRIL to coated TACI. On the procedure:
A receptor protein was diluted to 2 μg/mL with PBS at pH 7.4 (BasalMedia, B320) and added to a 96-well microplate (Corning, 3590) at 100 μL/well. The plate was incubated at 4° C. overnight. After the liquid was discarded, 200 μL of 1% Casein blocking solution (Thermo, 37528) was added to each well for blocking, and the plate was incubated at 37° C. for 2 h. After the blocking was completed, the blocking solution was discarded, and the plate was washed 3 times with a PBST buffer (PBS at pH 7.4 containing 0.1% tween-20) for later use. A biotin-labeled ligand protein at a fixed concentration was mixed with the antibody or fusion protein diluted in gradient, pre-incubated at 37° C. for 30 min, and added to a blocked microplate. The plate was incubated at 37° C. for 1.5 h. After the incubation was completed, the plate was washed 3 times with PBST. 100 μL of streptavidin-HRP (Invitrogen, 434323, diluted at a ratio of 1:4000) was added to each well, and the plate was incubated at 37° C. for 1 h. The supernatant was removed, and the plate was washed 3 times with PBST. […] The plate was read for absorbance values at 450 nm on a microplate reader, the curves for the inhibition of the binding of the ligands to the receptors were fitted with software, and the IC₅₀ values were calculated. […]
A general note: In an ELISA, binding on a coated surface is turned into a signal by an enzyme label.

Test [3] deals with T3, human BAFF (10056-HNCH, Sino biological) (human, UniProt Q9Y275 134-285).
T3 construct: Bought protein
The test is described as follows: competition ELISA: biotin-labeled BAFF to coated BAFF-R. On the procedure:
The blocking activity of the antibodies and the fusion proteins for receptors and ligands such as BAFF/BAFF-R, BAFF/BCMA, BAFF/TACI, APRIL/BCMA, APRIL/TACI, and p40/IL-12R1 was assayed by the ELISA method. The specific procedures were as follows:
A receptor protein was diluted to 2 μg/mL with PBS at pH 7.4 (BasalMedia, B320) and added to a 96-well microplate (Corning, 3590) at 100 μL/well. The plate was incubated at 4° C. overnight. After the liquid was discarded, 200 μL of 1% Casein blocking solution (Thermo, 37528) was added to each well for blocking, and the plate was incubated at 37° C. for 2 h. After the blocking was completed, the blocking solution was discarded, and the plate was washed 3 times with a PBST buffer (PBS at pH 7.4 containing 0.1% tween-20) for later use. A biotin-labeled ligand protein at a fixed concentration was mixed with the antibody or fusion protein diluted in gradient, pre-incubated at 37° C. for 30 min, and added to a blocked microplate. The plate was incubated at 37° C. for 1.5 h. After the incubation was completed, the plate was washed 3 times with PBST. 100 μL of streptavidin-HRP (Invitrogen, 434323, diluted at a ratio of 1:4000) was added to each well, and the plate was incubated at 37° C. for 1 h. The supernatant was removed, and the plate was washed 3 times with PBST. 100 μL of TMB chromogenic substrate (KPL, 5120-0077) was added to each well, and the plate was incubated at room temperature for 10-15 min. The reaction was stopped by adding 50 μL of 1 M H₂SO₄ to each well. The plate was read for absorbance values at 450 nm on a microplate reader, the curves for the inhibition of the binding of the ligands to the receptors were fitted with software, and the IC₅₀ values were calculated.

Test [4] concerns the target T2, human APRIL (5860-AP-010/CF, R&D …). As to the kind of experiment: cell-based or functional assay.
In test [5] the target is T3, human BAFF (10056-HNCH, Sino biological). As to the kind of experiment: ELISA, BAFF coated, sample titrated. On the procedure: The binding activity of the antibodies or fusion proteins for BAFF, APRIL, and IL-12/23 p40 was assayed by the ELISA method (coating an antigen protein). The specific procedures were as follows:
A BAFF (Sino biological, 10056-HNCH), APRIL (R&D Systems, 5860-AP-010/CF), or IL-12/23 p40 (Sino biological, 10052-H08H) protein was diluted to 1 μg/mL with a PBS (BasalMedia, B320) buffer at pH 7.4, and added to a 96-well microplate (Corning, 3590) at 100 μL/well. The plate was incubated at 4° C. overnight. After the liquid was discarded, 300 μL of 5% skim milk (BD, 232100) diluted with PBS was added to each well for blocking, and the plate was incubated at 37° C. for 2 h. After the blocking was completed, the blocking solution was discarded, and the plate was washed 3 times with a PBST buffer (PBS at pH 7.4 containing 0.1% tween-20). 100 μL of test antibody or fusion protein solution diluted in a gradient was added to each well, and the plate was incubated at 37° C. for 1 h. After the incubation was completed, the plate was washed 3 times with PBST. […] The plate was washed 3 times with PBST. […] The plate was read for absorbance values at 450 nm on a microplate reader, the binding curves of the antibodies to an antigen were fitted with software, and the EC₅₀ values were calculated.

Test [6] has as its target BAFF (R&D Systems, 7537-BF) (UniProt Q9Y275 134-285). As to the kind of experiment: cell-based or functional assay.

B1: RCT-18 (Telitacicept) (Fc fusion)
chain: SRVDQEERFPQGLWTGVAMRSCPEEQYWDPLLGTCMSCKTICNHQSQRTCAAFCRSLSCRKEQGKFYDHLLRDCISCASICGQHPKQCAYFCENKLRSPVNLPPELDKTHTCPPCPAPEAEGAPSVFLFPPKPKDTLMISRTPEVTCVVVDVSHEDPEVKFNWYVDGVEVHNAKTKPREEQYNSTYRVVSVLTVLHQDWLNGKEYKCKVSNKALPSSIEKTISKAKGQPREPQVYTLPPSRDELTKNQVSLTCLVKGFYPSDIAVEWESNGQPENNYKTTPPVLDSDGSFFLYSKLTVDKSRWQQGNVFSCSVMHEALHNHYTQKSLSLSPGK
notes: Positive control; TACI part is positions 13-118 of the extracellular region of human TACI, the rest is Fc
As to B1, the binding result in test [1] was “no binding”. Further, the IC50 in test [2] is 3.3 nM; in test [3], 19.2 nM. Besides, in test [4], the “IC50 (nM) for the inhibition of the APRIL-induced B cell proliferation” value was 1.09 nM. Also, the EC50 in test [5] is 6.71 nM. The “IC50 (nM) for the inhibition of the BAFF-induced B cell proliferation” value in test [6] came out at 0.382 nM.
